Laboratory results as given in the RNAGym collection of RNA variant scans (doi:10.1093/molbev/msab373).

B1: Azoarcus group I ribozyme (parent)
chain: GUGCCUUGCGCCGGGAAACCACGCAAGGGAUGGUGUCAAAUUCGGCGAAACCUAAGCGCCCGCCCGGGCGUAUGGCAACGCCGAGCCAAGCUUCGGCGCCUGCGCCGAUGAAGGUGUAGAGACUAGACGGCACCCACCUAAGGCAAACGCUAUGGUGAAGGCAUAGUCCAGGGAGUGGCGAAAGUCACACAAACCGG

Variants of: B1
Assay: reverse-splicing fitness (ratio to wild type); higher = more active; in vitro selection; Mg2+ level not given
Summary of the method: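 An in vitro group I ribozyme library with randomized positions was T7-transcribed and gel-purified. In triplicate, 10 pmol RNA in EPPS pH 7.5 was reacted with 50 pmoles of a 30-nt RNA substrate for 1 h at 37 °C across several added MgCl2 levels (1–48 mM), then stopped with EDTA. Products were reverse transcribed from a substrate-complementary primer, PCR-amplified and sequenced (HiSeq 4000). Fitness is a variant's read proportion after selection over that before, normalised to wild type.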

Q: Which reverse-splicing fitness does the source give for GUGCCUUGCGCCGGGAAACCACGCAAGGGAUGGUGUCAAAUUCGGCGAAACCUAAGCGCCCGCCCGGGCGUAUGGCAACGCCGAGCCAAGCUUCGGCGCCUGCGCCGAUGUAGGUGUAGGGACUAGACGGCACCCACCUAAGGCAAACGGUAUGGUGAAGGCAUAGUCUAGGGAGCGGCGAAAGUCACACAAACCGG [A111U A120G C150G C169U U176C] here?
A: 0.0149

Q: Which reverse-splicing fitness does the source give for GUGCCUUGCGCCGGGAAACCACGCAAGGGAUGGUGUCAAAUUCGGCGAAACCUAAGCGCCCGCCCGGGCGUAUGGCAACGCCGAGCCAAGCUUCGGCGCCUGCGCCGAUGUAGGUGUAGGGACUAGACGGCACCCACCUAAGGCAAACGGUAUGGUGAAGGCAUAGUCUAGGGAGGGGCGAAAGUCACACAAACCGG [A111U A120G C150G C169U U176G] here?
A: 0.00577

Q: For GUGCCUUGCGCCGGGAAACCACGCAAGGGAUGGUGUCAAAUUCGGCGAAACCUAAGCGCCCGCCCGGGCGUAUGGCAACGCCGAGCCAAGCUUCGGCGCCUGCGCCGAUGUAGGUGUAGGGACUAGACGGCACCCACCUAAGGCAAACGGUAUGGUGAAGGCAUAGUCUAGGGAGAGGCGAAAGUCACACAAACCGG [A111U A120G C150G C169U U176A], which reverse-splicing fitness is on record?
A: 0.0137

Q: With GUGCCUUGCGCCGGGAAACCACGCAAGGGAUGGUGUCAAAUUCGGCGAAACCUAAGCGCCCGCCCGGGCGUAUGGCAACGCCGAGCCAAGCUUCGGCGCCUGCGCCGAUGUAGGUGUAGGGACUAGACGGCACCCACCUAAGGCAAACGGUAUGGUGAAGGCAUAGUCGAGGGAGGGGCGAAAGUCACACAAACCGG [A111U A120G C150G C169G U176G] as the variant, how does the reverse-splicing fitness read?
A: 0.00442

Q: Which reverse-splicing fitness does the source give for GUGCCUUGCGCCGGGAAACCACGCAAGGGAUGGUGUCAAAUUCGGCGAAACCUAAGCGCCCGCCCGGGCGUAUGGCAACGCCGAGCCAAGCUUCGGCGCCUGCGCCGAUGUAGGUGUAGGGACUAGACGGCACCCACCUAAGGCAAACGGUAUGGUGAAGGCAUAGUCGAGGGAGAGGCGAAAGUCACACAAACCGG [A111U A120G C150G C169G U176A] here?
A: 0.00621

Q: Which reverse-splicing fitness does the source give for GUGCCUUGCGCCGGGAAACCACGCAAGGGAUGGUGUCAAAUUCGGCGAAACCUAAGCGCCCGCCCGGGCGUAUGGCAACGCCGAGCCAAGCUUCGGCGCCUGCGCCGAUGUAGGUGUAGGGACUAGACGGCACCCACCUAAGGCAAACGGUAUGGUGAAGGCAUAGUCGAGGGAGCGGCGAAAGUCACACAAACCGG [A111U A120G C150G C169G U176C] here?
A: 0.00471

Q: Which reverse-splicing fitness does the source give for GUGCCUUGCGCCGGGAAACCACGCAAGGGAUGGUGUCAAAUUCGGCGAAACCUAAGCGCCCGCCCGGGCGUAUGGCAACGCCGAGCCAAGCUUCGGCGCCUGCGCCGAUGUAGGUGUAGGGACUAGACGGCACCCACCUAAGGCAAACGAUAUGGUGAAGGCAUAGUCAAGGGAGGGGCGAAAGUCACACAAACCGG [A111U A120G C150A C169A U176G] here?
A: 0.00606

Q: Which reverse-splicing fitness does the source give for GUGCCUUGCGCCGGGAAACCACGCAAGGGAUGGUGUCAAAUUCGGCGAAACCUAAGCGCCCGCCCGGGCGUAUGGCAACGCCGAGCCAAGCUUCGGCGCCUGCGCCGAUGUAGGUGUAGGGACUAGACGGCACCCACCUAAGGCAAACGAUAUGGUGAAGGCAUAGUCAAGGGAGCGGCGAAAGUCACACAAACCGG [A111U A120G C150A C169A U176C] here?
A: 0.0201

Q: Which reverse-splicing fitness does the source give for GUGCCUUGCGCCGGGAAACCACGCAAGGGAUGGUGUCAAAUUCGGCGAAACCUAAGCGCCCGCCCGGGCGUAUGGCAACGCCGAGCCAAGCUUCGGCGCCUGCGCCGAUGUAGGUGUAGGGACUAGACGGCACCCACCUAAGGCAAACGAUAUGGUGAAGGCAUAGUCAAGGGAGAGGCGAAAGUCACACAAACCGG [A111U A120G C150A C169A U176A] here?
A: 0.0237

Q: Which reverse-splicing fitness does the source give for GUGCCUUGCGCCGGGAAACCACGCAAGGGAUGGUGUCAAAUUCGGCGAAACCUAAGCGCCCGCCCGGGCGUAUGGCAACGCCGAGCCAAGCUUCGGCGCCUGCGCCGAUGUAGGUGUAGGGACUAGACGGCACCCACCUAAGGCAAACGAUAUGGUGAAGGCAUAGUCGAGGGAGGGGCGAAAGUCACACAAACCGG [A111U A120G C150A C169G U176G] here?
A: 0.00494

Q: With GUGCCUUGCGCCGGGAAACCACGCAAGGGAUGGUGUCAAAUUCGGCGAAACCUAAGCGCCCGCCCGGGCGUAUGGCAACGCCGAGCCAAGCUUCGGCGCCUGCGCCGAUGUAGGUGUAGGGACUAGACGGCACCCACCUAAGGCAAACGAUAUGGUGAAGGCAUAGUCGAGGGAGAGGCGAAAGUCACACAAACCGG [A111U A120G C150A C169G U176A] as the variant, how does the reverse-splicing fitness read?
A: 0.0251

Q: For GUGCCUUGCGCCGGGAAACCACGCAAGGGAUGGUGUCAAAUUCGGCGAAACCUAAGCGCCCGCCCGGGCGUAUGGCAACGCCGAGCCAAGCUUCGGCGCCUGCGCCGAUGUAGGUGUAGGGACUAGACGGCACCCACCUAAGGCAAACGAUAUGGUGAAGGCAUAGUCGAGGGAGCGGCGAAAGUCACACAAACCGG [A111U A120G C150A C169G U176C], which reverse-splicing fitness is on record?
A: 0.0291

Q: Which reverse-splicing fitness does the source give for GUGCCUUGCGCCGGGAAACCACGCAAGGGAUGGUGUCAAAUUCGGCGAAACCUAAGCGCCCGCCCGGGCGUAUGGCAACGCCGAGCCAAGCUUCGGCGCCUGCGCCGAUGUAGGUGUAGGGACUAGACGGCACCCACCUAAGGCAAACGGUAUGGUGAAGGCAUAGUCCAGGGAGAGGCGAAAGUCACACAAACCGG [A111U A120G C150G U176A] here?
A: 0.00753

Q: For GUGCCUUGCGCCGGGAAACCACGCAAGGGAUGGUGUCAAAUUCGGCGAAACCUAAGCGCCCGCCCGGGCGUAUGGCAACGCCGAGCCAAGCUUCGGCGCCUGCGCCGAUGUAGGUGUAGGGACUAGACGGCACCCACCUAAGGCAAACGGUAUGGUGAAGGCAUAGUCCAGGGAGCGGCGAAAGUCACACAAACCGG [A111U A120G C150G U176C], which reverse-splicing fitness is on record?
A: 0.0112

Q: Which reverse-splicing fitness does the source give for GUGCCUUGCGCCGGGAAACCACGCAAGGGAUGGUGUCAAAUUCGGCGAAACCUAAGCGCCCGCCCGGGCGUAUGGCAACGCCGAGCCAAGCUUCGGCGCCUGCGCCGAUGUAGGUGUAGGGACUAGACGGCACCCACCUAAGGCAAACGGUAUGGUGAAGGCAUAGUCAAGGGAGGGGCGAAAGUCACACAAACCGG [A111U A120G C150G C169A U176G] here?
A: 0.0057
